The nature of data set [1]: Plasma stability assay. The format is in vitro ADME. The note with it: 50% mouse plasma (DLS) and 20% mouse plasma or 1.5 × 10^−6 M GSH (HPLC), different time periods, n = 3. On the procedure:
(§1) For the DLS assay, NanoCLY solution was mixed with 50% mouse plasma and incubated for different time periods. After incubation, the aliquots were analyzed using DLS. For the NanoCLY stability assay under simulated plasma GSH conditions, NanoCLY solution was mixed with 1.5 × 10^−6 M GSH or 20% mouse plasma, and was incubated for different time periods. After incubation, the aliquots were diluted and analyzed by HPLC.

Data set [2] can be described thus: Critical micelle concentration with pyrene. Type of data set: physicochemical. The note with it: pyrene fluorescence I390/I380, aqueous solution, sonicated 2 h. How it is done:
The CMC value of NanoCLY in an aqueous solution was estimated by pyrene. Pyrene with the final concentration of 6.08 mg L^−1 was added 100 µL to Eppendorf tubes and dried overnight, and was added with 500 µL of various concentrations of NanoCLY (0.001, 0.006, 0.0125, 0.025, 0.05, 0.2, 0.6 mg mL^−1), and sonicated for 2 h. After sonicating, the supernatant samples were collected, and recorded the intensity ratios of I390/I380 by microplate reader Cytation 5 (Biotek, USA). The crossing point of the two linear fittings of the logarithm of NanoCLY concentrations was set as the CMC value.

For data set [3], the system named is MDA‐MB‐231‐Luc cells. In words: Lung metastasis model. Type of data set: in vivo, BALB/c nude mice. The conditions noted are these: 10 mg kg^−1 i.v. every 2 days, 12 times, bioluminescence day 12, 18, 24, n = 3. On the procedure:
Exponentially grown 5 × 10^5 MDA‐MB‐231‐Luc cells were suspended in 100 µL of PBS and intravenously injected into female nude BALB/c mice. The mice were randomly divided into […] (n = 3) and treated with PBS, 10 mg kg^−1 NanoCLY via intravenous injection every 2 days for 12 times in total. The growth of lung metastatic tumors was monitored by VISQUE In Vivo Elite after intraperitoneal injection of 20 mg kg^−1 D‐luciferin on day 12, day 18, and day 24. At the end of monitoring on day 24, the lungs were photographed and fixed, and H&E staining. Metastatic areas on the lung surface were quantified by ImageJ software.

Data set [4] concerns the target T1, CTGF (Homo sapiens, UniProt P29279).
T1 construct: endogenous in cells; host or cells: BT549 and MDA-MB-231 (human TNBC cell lines)
T1 sequence (P29279 27-349): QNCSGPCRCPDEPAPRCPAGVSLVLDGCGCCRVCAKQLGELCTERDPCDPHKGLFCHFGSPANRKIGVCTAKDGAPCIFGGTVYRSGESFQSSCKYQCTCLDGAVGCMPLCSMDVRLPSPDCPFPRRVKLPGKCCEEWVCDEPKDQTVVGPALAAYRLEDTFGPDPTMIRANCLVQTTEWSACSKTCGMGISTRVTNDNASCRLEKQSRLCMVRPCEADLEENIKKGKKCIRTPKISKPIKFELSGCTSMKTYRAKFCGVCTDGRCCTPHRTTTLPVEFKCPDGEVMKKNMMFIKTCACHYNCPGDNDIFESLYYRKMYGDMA
Briefly: ELISA of extracellular CTGF in culture media of TNBC cells. Type of data set: cell-based. The conditions noted are these: in vitro, BT549 and MDA-MB-231 culture media, 12 h. On the procedure: BT549 and MDA‐MB‐231 cells were treated with various concentrations of CL8‐M6P3 or NanoCLY for 12 h. Extracellular CTGF protein level in conditioned media was quantified by a human CTGF ELISA kit following the manufacturer's instructions (ab261851, Abcam and CSB‐E07875h, Cusabio). Extracellular CCN1, CCN3, and CCN4 protein levels were quantified using respective ELISA kits (HY‐P7842, HY‐P701327, HY‐P78051, MCE) following the manufacturer's instructions (CSB‐EL015956HU, CSB‐EL026119HU, CSB‐E13884h, Cusabio). Additionally, BSP and β‐CTx levels in serum were quantified by ELISA kit following the manufacturer's instructions (BPE10823, BPE10438, lengton).

Data set [5] is described as follows: Dynamic light scattering: size, PDI, zeta potential. The format is physicochemical. The conditions noted are these: DLS, 500 µg/mL in PBS. How it is done: A solution of 1‐Dodecanethiol (0.5 mmol) and 2,2′‐Dithiodipyridine (0.6 mmol) in 10 mL MeOH was vigorously stirred for 3 h at room temperature. The reaction mixture was diluted with petroleum ether/ethyl acetate (50:1, v/v). The purified products 2‐(dodecyldisulfaneyl)pyridine were characterized by MS. CL8‐M6P3 (1.4 mg, 0.56 µmol, 1 eq.) and 2‐(dodecyldisulfaneyl)pyridine (261.7 µg, 0.84 µmol, 1.5 eq.) dissolved in 1 mL DMF/ddH2O (1/1, v:v) was vigorously stirred for 16 h at room temperature. The products were diluted with ddH2O. The aqueous layer was extracted with ethyl acetate three times, and filtered and concentrated under reduced pressure. For particle size measurement, NanoCLY was prepared at a final concentration of 500 µg/mL in PBS, sonicated for 30 min, and used for particle size analyzer (Malvern Panalytical, UK), transmission electron microscope (TEM) analysis (JEOL, Japan) and Nanosight NS300 (Malvern Panalytical, UK). 2‐(dodecyldisulfaneyl)pyridine, ESI‐MS calcd for C17H29NS2 [M + H]^+ 312.55, found 312.20. NanoCLY, ESI‐MS calcd for C107H176N27O47P3S2 [M + H]^+ 2750.77, found 1375.50.

A short description of data set [6]: GSH response of NanoCLY (HPLC). The format is physicochemical. How it is done: For in vitro experiments, NanoCLY (0.1 mg mL^−1) was incubated with varying concentrations of GSH (0, 2, 25 × 10^−5 M) in PBS at 37 °C for 6 h. After incubation, the aliquots were analyzed by NanoSight (Malvern Panalytical, UK), HPLC (Agilent, USA), and TEM (JEOL, Japan). For in vivo experiments, when tumor volume reached about 200 mm^3, mice were intratumorally injected with 50 µL NanoCLY (2.5 mg kg^−1), or NanoCLY (2.5 mg kg^−1) with a 20‐min preinjection of H2O2 (2.5 × 10^−2 M). Tumors were collected after 4 h for HPLC analysis.
as §1

Data set [7] is described as follows: Stability of nanoparticles in PBS. Type of data set: physicochemical. The conditions noted are these: PBS pH 7.4, 37 °C, n = 3.

This is an account of results in publication PMC12199414, “A Self‐Assembling LYTAC Mediates CTGF Degradation and Remodels Inflammatory Tumor Microenvironment for Triple‐Negative Breast Cancer Therapy” (Advanced Science, 2025).

Consider “C12-CPSAAHYL-PEG3-[Pra(M6P)βAla]3-NH2 [NanoCLY, CL8-M6P3 joined to a lauryl chain via disulfide; self-assembling GSH-responsive LYTAC nanoparticle]”, for which the “size and structural integrity under plasma conditions” value in data set [1] is “retained its size and structural integrity”. Further, in data set [2], the critical micelle concentration (CMC) worked out at 55.1 µg/mL. Besides, the “lung colonization by MDA-MB-231 cells” value in data set [3] is given as “significantly reduced lung colonization”. Moreover, the “extracellular CTGF degraded” value in data set [4] was “≈ 50%”. Besides, the “polymer dispersity index (PDI)” value in data set [5] is reported as 0.301 ± 0.059. For the same substance, the “hydrodynamic diameter (size)” value in data set [5] (sonicated 30 min) is 118.0 ± 9.38 nm. Moreover, the “stability under plasma-mimicking GSH” value in data set [6] (GSH 1.5 × 10⁻⁶ M, analytical HPLC 214 nm) is recorded as “remained stable”. Besides, the “disulfide linker cleavage at TME-relevant GSH” value in data set [6] (GSH 2 × 10⁻⁵ and 2.5 × 10⁻⁴ M in PBS, 37 °C, 6 h, NanoCLY 0.1 mg mL^−1, analytical HPLC 214 nm) is “selective cleavage of the disulfide linker”. Moreover, the “stability in PBS (size and PDI)” value in data set [7] is “at least 72 h”.
